# Data from PMC2194782.
# Molecular target: human plasmin (formed from plasminogen incubated with equimolar SAK or RGD-SAK) (human)
Substance,"kcat/Km of plasminogen activation by the preformed equimolar RGD-SAK-plasmin complex, monitored with S-2251 [µM⁻¹ s⁻¹]","kcat/Km of plasminogen activation by the preformed equimolar SAK-plasmin complex, monitored with S-2251 [µM⁻¹ s⁻¹]"
RGD-SAK (staphylokinase with K35 replaced by Arg) (from UniProt P68802 28-163) (natural protein),0.037,–
staphylokinase (SAK) (from UniProt P68802 28-163) (natural protein),–,0.033
